Test results from a protein production outcome set (Wang et al. 2014).

Experiment: label from the status in PepcDB records

Sequence | protein production
MKRKLVTSALPYVNNFPHLGNLIQVLSADVFARFCRLKEYETLYICGTDEYGTATETKALEEKKSPEELCSFYHAIHAEIYNWFNIAFDYFGRTSTPQQTEITQGIFNDLDKNGYITEHTIEQLYCPSCKRFLADRYVLGTCPSCSYDGARGDQCEHCGKLLDPTDLKEPRCSSCGAAPEVRSTTHLYINLPKIVPEYEKWMPKTAEEGRWSNNALQMSKSWLRDGLQERAITRDLKWGIPVPKKGFEDKVFYVWFDAPIGYISITKCWADLAGKDWKAWWLDQNDVELFQFIGKDNIPFHTVIFPCSLIGSGKNWTKLFHMSGTEYLNYENGKFSKSKGVGVFGNDAKESGIPADMWRFYIFYNRPEKNDTQFTWKDFQERVNSELIGNLCNLVNRTATFIHRYYDGKIPQVDGAKSGREDIKSMVKSLREAASASFKKITELSDWAELRDSFHEAFALSSVANKAFQDGEPWKRRETDPEYAEALMSELCYLIKDILILIHPYMPQYADQAAGFFGQKIWSGNIFDGKAPQFNKPEGSFLSWKNLGEREGLKTVENPVIIFKTLDNKVIDAYRERYSGSQKDRKKSEKGCSACKDSGSSKSDAAASSAKPEVKLSPAELFSKKIALKTAKIISVERHPDADKLYIEKLDDGSGEERTILSGLVPFLKEDEILGKTVIIADNLKPRKMRGIESKGMLLAASWYDEEEKEHVELLQAPWAAPGTPVILEGDADISDPEAVKAFYAQKPAAIDADTFFAAPILIEDYIPKIEGKKLLVAGKEMKLEKVKTGEAG | failed
MNSVYFLNVSEALATPQDKLHTVRLFGTVAADGLTMLDGAPGVRFRLEDKDNTSKTVWVLYKGAVPDTFKPGVEVIIEGGLAPGEDTFKARTLMTKCPLEHHHHHH | failed
MSLNVQTVAVIGSGTMGAGIAEVAASHGHQVLLYDISAEALTRAIDGIHARLNSRVTRGKLTAETCERTLKRLIPVTDIHALAAADLVIEAASERLEVKKALFAQLAEVCPPQTLLTTNTSSISITAIAAEIKNPERVAGLHFFNPAPVMKLVEVVSGLATAAEVVEQLCELTLSWGKQPVRCHSTPGFIVNRVARPYYSEAWRALEEQVAAPEVIDAALRDGAGFPMGPLELTDLIGQDVNFAVTCSVFNAFWQERRFLPSLVQQELVIGGRLGKKSGLGVYDWRAEREAVVGLEAVSDSFSPMKVEKKSDGVTEIDDVLLIETQGETAQALAIRLARPVVVIDKMAGKVVTIAAAAVNPDSATRKAIYYLQQQGKTVLQIADYPGMLIWRTVAMIINEALDALQKGVASEQDIDTAMRLGVNYPYGPLAWGAQLGWQRILRLLENLQHHYGEERYRPCSLLRQRALLESGYESEGHHHHHH | not failed
MSNKPASQQTRLTDWLIFLAVPFFFSSNVIFGRGVVGEVSPFIAAFIRWMGSTLIIAPFMIADWRNCLAFVRDKMLLWLVLGILGMGICGGVVYWGLTMTTAANGTLIYTTSSLFIILFQRIFQGRPIRKLEVAGMVIAFAGVAAIVLKGDISALRHMNFNIGDFAILTAAIAFAIYSLLLRDPAARQMASFSLFGLIAFSGALVLLPPAALELAQGGMLPATGAAWAKIGGIILFASLLAFYCFTHTVRVFGPATAGITLYMMPPVSILMATIFLGETFETYHAIGIVLVTGGVILATAPIGRKR | failed
MQRTGELPAEHVPVILESSGAGDFHLIDSGNGLKLEQYGDYRVVRPEAQALWRPLVPDRVWQNADAIFTGDTDEDGMGRWRFPKEALGETWPLSLLGVEFLGRFTAFRHVGVFPEQIVHWEWLKNAVETADRPLKVLNLFGYTGVASLVAAAAGAEVTHVDASKKAIGWAKENQVLAGLEQAPIRWICEDAMKFIQREERRGSTYDIILTDPPKFGRGTHGEVWQLFDHLPLMLDICREILSPKALGLVLTAYSIRASFYSMHELMRETMRGAGGVVASGELVIREAGLDGKTPGRVLSTSLFSRWEPK | not failed
MTAHPPRPELQIDIVSDVVCPWCIVGFRQLDQALAATGVLARLRWHPFELNPQMGPEGQNLREHIMEKYGSTPEQSAEARARLTAIGAELGFTFNFTDDSRIVNTFAAHQLLDWAEGQGRQHPLKQALFAAYFTDGRDVSDLSVLLDAVEAAGLDREAAQTALTSGAHQAPVREKQKFWAQHGISGVPSMVFGGKYLLTGAQGADTYAQVIQRCLAEAA | not failed
MVKSIVILIETVTMKIPAVYSDGSFKTFNDSETTAQKLVDSGVVNTFAFGPTLVENGKVAVSENEEVGQDMADNPRTAIVVNEESDRSVHYIVIVSDGRTSESSGLTLYEMAELMKSYGVMTGYNLDVGDSSTMYSNGQVINKPTRKRKQNLRKGGERYRLHRLLKNLLASTFSPPILVLEHHHHHH | not failed
